Data on one substance can be found in PMC10600506.

By Kd is commonly meant the concentration at which binding is half-saturated. Low readings indicate tighter binding, high ones weaker binding.

This experiment concerns the target SARS-CoV-2 Omicron BA.1 Spike receptor-binding domain (SARS-CoV-2 Omicron BA.1). Kind of experiment: BLI; RBD1 with hACE2, 'with the same assay condition' as Nb4 with RBD1.

Chain of angiotensin-converting enzyme 2, extracellular (Q9BYF1 20-615): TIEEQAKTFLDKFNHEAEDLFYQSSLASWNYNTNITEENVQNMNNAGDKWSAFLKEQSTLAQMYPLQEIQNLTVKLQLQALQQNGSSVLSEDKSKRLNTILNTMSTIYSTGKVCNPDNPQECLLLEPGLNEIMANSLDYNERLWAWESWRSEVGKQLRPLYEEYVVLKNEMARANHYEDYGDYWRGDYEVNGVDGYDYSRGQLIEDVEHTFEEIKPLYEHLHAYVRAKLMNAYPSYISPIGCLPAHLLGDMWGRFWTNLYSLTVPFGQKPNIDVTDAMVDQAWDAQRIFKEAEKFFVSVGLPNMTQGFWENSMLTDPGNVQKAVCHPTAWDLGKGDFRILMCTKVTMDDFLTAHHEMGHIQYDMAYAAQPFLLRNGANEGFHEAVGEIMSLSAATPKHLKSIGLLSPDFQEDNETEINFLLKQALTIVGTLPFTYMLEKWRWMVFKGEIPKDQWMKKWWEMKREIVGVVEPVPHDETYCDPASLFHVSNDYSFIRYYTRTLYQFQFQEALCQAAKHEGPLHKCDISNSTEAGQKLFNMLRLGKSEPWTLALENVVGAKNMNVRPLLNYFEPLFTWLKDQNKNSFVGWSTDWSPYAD

With “angiotensin-converting enzyme 2, extracellular (from UniProt Q9BYF1 20-615) (receptor)”, the Kd came out at 9 nM.
